This series deals with NCCC(=O)O. The experiment in a line: purified protein. As to conditions: pH 7.8; 25.0 °C.

Take (Mycobacterium tuberculosis H37Rv): the Km turned out to be 610 ± 10 µM and the kcat/Km came to 2600 M⁻¹ s⁻¹.
